B1: IpaH7.8 protein (residues 23–565) [Shigella flexneri] / GSDMB (residues 1-411) [human] (parent complex)
chain 1: SNEHYLRILTEWEKNSSPGEERGIAFNRLSQCFQNQEAVLNLSDLNLTSLPELPKHISALIVENNKLTSLPKLPAFLKELNADNNRLSVIPELPESLTTLSVRSNQLENLPVLPNHLTSLFVENNRLYNLPALPEKLKFLHVYYNRLTTLPDLPDKLEILCAQRNNLVTFPQFSDRNNIRQKEYYFHFNQITTLPESFSQLDSSYRINISGNPLSTRVLQSLQRLTSSPDYHGPQIYFSMSDGQQNTLHRPLADAVTAWFPENKQSDVSQIWHAFEHEEHANTFSAFLDRLSDTVSARNTSGFREQVAAWLEKLSASAELRQQSFAVAADATESCEDRVALTWNNLRKTLLVHQASEGLFDNDTGALLSLGREMFRLEILEDIARDKVRTLHFVDEIEVYLAFQTMLAEKLQLSTAVKEMRFYGVSGVTANDLRTAEAMVRSREENEFTDWFSLWGPWHAVLKRTEADRWAQAEEQKYEMLENEYSQRVADRLKASGLSGDADAEREAGAQVMRETEQQIYRQLTDEVLALRLSENGSRLHHS
chain 2: MFSVFEEITRIVVKEMDAGGDMIAVRSLVDADRFRCFHLVGEKRTFFGCRHYTTGLTLMDILDTDGDKWLDELDSGLQGQKAEFQILDNVDSTGELIVRLPKEITISGSFQGFHHQKIKISENRISQQYLATLENRKLKRELPFSFRSINTRENLYLVTETLETVKEETLKSDRQYKFWSQISQGHLSYKHKGQREVTIPPNRVLSYRVKQLVFPNKETMSAGLDIHFRGKTKSFPEGKSLGSEDSRNMKEKLEDMESVLKDLTEEKRKDVLNSLAKCLGKEDIRQDLEQRVSEVLISGELHMEDPDKPLLSSLFNAAGVLVEARAKAILDFLDALLELSEEQQFVAEALEKGTLPLLKDQVKSVMEQNWDELASSPPDMDYDPEARILCALYVVVSILLELAEGPTSVSS

Variants of: B1
Test: ITC; parent: 94 nM

Row | Variant | Kd [nM]
1 | chain 1 N124A | 360
